Measurements from publication PMC8413462, “Eukaryotic Box C/D methylation machinery has two non-symmetric protein assembly sites”.
Positions count from the first letter of the chain named.

Legend:
L7Ae [1] = target: T1, L7Ae (Pyrococcus furiosus, UniProt Q8U160 1-123); assay: EMSA; similar to snR51-kl1; EMSA: annealed in 10 mM Tris-HCl, 100 mM NaCl, 1 mM EDTA, pH 7.5; 4 C, 10% native PAGE; 10 pmol Cy5-RNA (~2 uM) or 0.5 nmol unlabeled RNA. RNP: 20 mM Na phospha
L7Ae [2] = target: T1, L7Ae; assay: EMSA; EMSA: annealed in 10 mM Tris-HCl, 100 mM NaCl, 1 mM EDTA, pH 7.5; 4 C, 10% native PAGE; 10 pmol Cy5-RNA (~2 uM) or 0.5 nmol unlabeled RNA. RNP: 20 mM Na phospha
Snu13 R95VP96A [3] = target: T2, Snu13 R95VP96A (Saccharomyces cerevisiae, UniProt P39990 1-126, R95V;P96A); assay: EMSA; EMSA: annealed in 10 mM Tris-HCl, 100 mM NaCl, 1 mM EDTA, pH 7.5; 4 C, 10% native PAGE; 10 pmol Cy5-RNA (~2 uM) or 0.5 nmol unlabeled RNA. RNP: 20 mM Na phosphate, 500 mM NaCl, pH 6.6; settings: protein: recombinant, tags: N-terminal His6, TEV-cleaved, label: 5'-Cy5
T2 sequence: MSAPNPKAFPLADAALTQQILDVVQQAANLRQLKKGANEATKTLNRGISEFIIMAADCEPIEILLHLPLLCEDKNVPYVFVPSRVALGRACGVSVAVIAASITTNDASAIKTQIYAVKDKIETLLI

Snu13 V93IR95V [4] = target: T3, Snu13 V93IR95V (Saccharomyces cerevisiae, UniProt P39990 1-126, V93I;R95V); assay: as above; settings: protein: recombinant, tags: N-terminal His6, TEV-cleaved, label: 5'-Cy5
T3 sequence: T2 sequence with V93I, A96P

L7Ae [5] = target: T1, L7Ae; assay: EMSA; affinity not improved over snR51-kl1; EMSA: annealed in 10 mM Tris-HCl, 100 mM NaCl, 1 mM EDTA, pH 7.5; 4 C, 10% native PAGE; 10 pmol Cy5-RNA (~2 uM) or 0.5 nmol unlabeled RNA. RNP: 20 mM Na phospha
Snu13 R95VP96A [6] = target: T2, Snu13 R95VP96A; assay: EMSA; better than wild type; EMSA: annealed in 10 mM Tris-HCl, 100 mM NaCl, 1 mM EDTA, pH 7.5; 4 C, 10% native PAGE; 10 pmol Cy5-RNA (~2 uM) or 0.5 nmol unlabeled RNA. RNP: 20 mM Na phosphate, 500 mM NaCl, pH 6.6; settings: protein: recombinant; tags: N-terminal His6, TEV-cleaved; label: 5'-Cy5; k-turn
Snu13 V93IR95V [7] = target: T3, Snu13 V93IR95V; assay: as above; settings: protein: recombinant; tags: N-terminal His6, TEV-cleaved; label: 5'-Cy5; k-turn
Snu13 R95VI98A = target: T4, Snu13 R95VI98A (Saccharomyces cerevisiae, UniProt P39990 1-126, R95V;I98A); assay: as above; settings: protein: recombinant; tags: N-terminal His6, TEV-cleaved; label: 5'-Cy5; k-turn
T4 sequence: T2 sequence with A96P, I98A

Snu13 = target: T5, Snu13 (Saccharomyces cerevisiae, UniProt P39990 1-126); assay: EMSA (ethidium bromide); ~100 uM RNA; EMSA: annealed in 10 mM Tris-HCl, 100 mM NaCl, 1 mM EDTA, pH 7.5; 4 C, 10% native PAGE; 10 pmol Cy5-RNA (~2 uM) or 0.5 nmol unlabeled RNA. RNP: 20 mM Na phosphate, 500 mM NaCl, pH 6.6; settings: protein: recombinant; tags: N-terminal His6, TEV-cleaved; k-turn
T5 sequence: T2 sequence with V95R, A96P

## UACGAAAUAGUUGAUGA (structured_RNA) [snR51-kl4]
L7Ae [1]
  binding result: binds

## ACUGACUGUGAUCAAACGAUCUUGUAGA (structured_RNA) [snR54-kl1]
L7Ae [2]
  binding result: no binding
Snu13 R95VP96A [3]; non-canonical k-turn
  binding result: binds
Snu13 V93IR95V [4]; non-canonical k-turn
  binding result: binds

## UACUAGAUUGGUCUCUUUCAAGAAGGGGCUAAUUGAUGA (structured_RNA) [snR51-kl1]
L7Ae [2]
  Kd: < 141 nM

## UACGAGAUUGGUCUCUUUCAAGAAGGGGCUAAUUGAUGA (structured_RNA) [snR51-kl2]
L7Ae [5]
  binding result: binds
Snu13 R95VP96A [6]
  binding result: binds
Snu13 V93IR95V [7]
  binding result: binds
Snu13 R95VI98A
  binding result: binds

## UACGAGAUUGGUCUCUUUCAAGAAGGGGCUAAUUGAUGA (structured_RNA) [snR51-kl2 unlabeled]
Snu13
  binding result: binds

## ACUGACUGUGAUCAAACGAUCUUGAAGA (structured_RNA) [snR54-kl2]
Snu13 R95VP96A [3]
  binding result: binds
Snu13 V93IR95V [4]
  binding result: binds

## UACUAAAUAGUUGAUGA (structured_RNA) [snR51-kl3]
Snu13 V93IR95V [4]; k-loop
  binding result: binds

## ACUGAAAUAGUUGUAGA (structured_RNA) [snR54-kl3]
Snu13 V93IR95V [4]; k-loop
  binding result: binds
